Reference: PMC2897767, “Two Distinct Mechanisms for Actin Capping Protein Regulation—Steric and Allosteric Inhibition” (PLoS Biology, 2010)

Biological target: GST-V-1 (human) (UniProt P58546)
Assay: SPR; GST-fusion protein (GST-V-1, GST-CA or GST-CD) immobilised on a CM5 chip via anti-GST antibodies (up to 200 RU), CP perfused at 20 µl/min; 20°C; 50 mM KCl, 1 mM MgCl2, 0.005% Tween-20, 10 mM imidazole pH 7.0; 1:1 fit, KD from the kinetic rate constants (steady state for several fast-dissociating mutants)

Chain of GST-V-1 (human) (P58546 whole entry, the tested form may be a part): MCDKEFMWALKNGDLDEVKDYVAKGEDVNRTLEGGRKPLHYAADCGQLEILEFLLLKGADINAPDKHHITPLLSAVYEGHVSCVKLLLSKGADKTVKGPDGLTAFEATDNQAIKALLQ

CP with mutations of residues which form the “basic triad” (CP (α) Lys256, Arg260, Arg266)
fold reduction of the affinity against the wild type proteins: > 25 fold
